# B1: FleN, full length (residues 1 to 280), wild type (natural protein, Pseudomonas aeruginosa, UniProt G3XD64 1-280, looked up)
# chain: MKQMGSMHPVQVIAVTGGKGGVGKTNVSVNLALALADLGRRVMLLDADLGLANVDVLLGLTPKRTLADVIEGRCELRDVLLLGPGGVRIVPAASGTQSMVHLSPMQHAGLIQAFSDISDNLDVLVVDTAAGIGDSVVSFVRAAQEVLLVVCDEPTSITDAYALIKLLNRDHGMTRFRVLANMAHSPQEGRNLFAKLTKVTDRFLDVALQYVGVIPYDESVRKAVQKQRAVYEAFPRSKASLAFKAVAQKVDSWPLPANPRGHLEFFVERLVQHPATGSAV
# Legend:
# crystal structure = molecular target: the molecule itself; experiment: crystal structure
# [1] = molecular target: FleQ, full length (FleQFL) (Pseudomonas aeruginosa, UniProt G3XCV0 1-490, biotin (EZ-Link NHS-PEG4-Biotin) for the BLI assay); experiment: BLI
# cross-linking = molecular target: the molecule itself; experiment: cross-linking
# [2] = molecular target: B1; experiment: BLI
# Chain of FleQ, full length (FleQFL) (G3XCV0 whole entry): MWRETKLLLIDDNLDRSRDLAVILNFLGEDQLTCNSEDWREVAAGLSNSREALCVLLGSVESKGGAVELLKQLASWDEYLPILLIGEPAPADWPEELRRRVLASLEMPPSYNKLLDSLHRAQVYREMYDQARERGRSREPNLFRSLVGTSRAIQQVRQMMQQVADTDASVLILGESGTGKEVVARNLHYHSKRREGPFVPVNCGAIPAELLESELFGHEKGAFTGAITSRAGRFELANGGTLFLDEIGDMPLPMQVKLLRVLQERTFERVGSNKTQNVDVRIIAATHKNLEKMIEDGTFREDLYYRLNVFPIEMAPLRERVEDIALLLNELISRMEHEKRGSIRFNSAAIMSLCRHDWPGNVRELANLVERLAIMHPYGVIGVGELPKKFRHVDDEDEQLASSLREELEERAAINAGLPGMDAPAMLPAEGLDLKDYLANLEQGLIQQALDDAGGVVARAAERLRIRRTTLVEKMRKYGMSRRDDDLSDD
binder,measurement,setting,value
B1,stoichiometry N,crystal structure,2
same,Kd,[1],340 nM
"FleN D48A (natural protein, Pseudomonas aeruginosa, UniProt G3XD64 1-280, looked up) MKQMGSMHPVQVIAVTGGKGGVGKTNVSVNLALALADLGRRVMLLDAALGLANVDVLLGLTPKRTLADVIEGRCELRDVLLLGPGGVRIVPAASGTQSMVHLSPMQHAGLIQAFSDISDNLDVLVVDTAAGIGDSVVSFVRAAQEVLLVVCDEPTSITDAYALIKLLNRDHGMTRFRVLANMAHSPQEGRNLFAKLTKVTDRFLDVALQYVGVIPYDESVRKAVQKQRAVYEAFPRSKASLAFKAVAQKVDSWPLPANPRGHLEFFVERLVQHPATGSAV",binding result,[1],binds
"FleN L263W (natural protein, Pseudomonas aeruginosa, UniProt G3XD64 1-280, looked up) MKQMGSMHPVQVIAVTGGKGGVGKTNVSVNLALALADLGRRVMLLDADLGLANVDVLLGLTPKRTLADVIEGRCELRDVLLLGPGGVRIVPAASGTQSMVHLSPMQHAGLIQAFSDISDNLDVLVVDTAAGIGDSVVSFVRAAQEVLLVVCDEPTSITDAYALIKLLNRDHGMTRFRVLANMAHSPQEGRNLFAKLTKVTDRFLDVALQYVGVIPYDESVRKAVQKQRAVYEAFPRSKASLAFKAVAQKVDSWPLPANPRGHWEFFVERLVQHPATGSAV",stoichiometry N,cross-linking,2
same,fold change of KD against WT FleN,[1],100 fold
"FleQ AAA+ ATPase (central) domain, residues 142 to 395 (domain or fragment, biotin (EZ-Link NHS-PEG4-Biotin) for the BLI assay) not shown",Kd,[2],260 nM
"FleN truncated by 25 amino acids at the C terminus, residues 1 to 255 (domain or fragment, Pseudomonas aeruginosa, UniProt G3XD64 1-255, looked up) MKQMGSMHPVQVIAVTGGKGGVGKTNVSVNLALALADLGRRVMLLDADLGLANVDVLLGLTPKRTLADVIEGRCELRDVLLLGPGGVRIVPAASGTQSMVHLSPMQHAGLIQAFSDISDNLDVLVVDTAAGIGDSVVSFVRAAQEVLLVVCDEPTSITDAYALIKLLNRDHGMTRFRVLANMAHSPQEGRNLFAKLTKVTDRFLDVALQYVGVIPYDESVRKAVQKQRAVYEAFPRSKASLAFKAVAQKVDSWPL",stoichiometry N,cross-linking,2
